Measurements taken from patent publication US12049482B2, “Molecular switch-mediated control of engineered cells” (THE GENERAL HOSPITAL CORPORATION, priority 2017, dated 2024).
Entries after “also recorded” stand apart in the source; their conditions may differ. Each block holds one molecule with its values, some of them ahead of it.

Experiments:
CRL4^CRBN = target: T1, CRL4^CRBN (Homo sapiens, UniProt Q96SW2); test: GFP/mCherry reporter assay for degradation of degron-eGFP fusion proteins in Jurkat T cells; type: cell-based
T1 construct: endogenous in cells; host or cells: Jurkat T cells (ligase endogenous; degron-eGFP reporters lentivirally transduced)
Procedure: First, the FMC63 anti-CD19 scFv was exchanged for the CD28 Ig-like V-type extracellular domain. […] Experiments were performed in triplicate.
[…] Cells were analyzed by flow cytometry for eGFP and mCherry fluorescence. 1000 mCherry+ cells were analyzed per sample, and the geometric mean of the per-cell eGFP/mCherry ratio was calculated in Flowjo. In Pomalidomide dose titration studies, the EC50 was calculated by non-linear regression in Prism. Experiments were performed in triplicate. In some cases cell surface protein expression was assayed in parallel with the above reporter assay; cells were stained with anti-CD28-BV421 antibody (BD Biosciences 562613) at a 1:50 dilution in FACS buffer (PBS+2% FCS+2 mM EDTA) for 10 minutes on ice. Cells were washed with FACS buffer and analyzed by flow cytometry.
First, the FMC63 anti-CD19 scFv was exchanged for the CD28 Ig-like V-type extracellular domain.

CRBN [1] = target: T2, CRBN (Homo sapiens, UniProt Q96SW2); test: Pomalidomide-dependent degradation of IKZF3 degron with A153 substitutions; type: cell-based; design: endogenous in cells; conditions: wtCRBN-expressing cells, pomalidomide dose-response
Procedure: Transduced cells were incubated with a range of Pomalidomide concentrations or DMSO for 20 hours. Cells were analyzed by flow cytometry for eGFP and mCherry fluorescence. 1000 mCherry+ cells were analyzed per sample, and the geometric mean of the per-cell eGFP/mCherry ratio was calculated in Flowjo. In Pomalidomide dose titration studies, the EC50 was calculated by non-linear regression in Prism. Experiments were performed in triplicate. In some cases cell surface protein expression was assayed in parallel with the above reporter assay; cells were stained with anti-CD28-BV421 antibody (BD Biosciences 562613) at a 1:50 dilution in FACS buffer (PBS+2% FCS+2 mM EDTA) for 10 minutes on ice. Cells were washed with FACS buffer and analyzed by flow cytometry.

K562-CD19 cells = test: Jurkat degron-tagged CAR-T co-culture with K562-CD19 (Myc-tag, CD69, IL2); type: cell-based, human
Procedure: 100,000 CAR-T Jurkat cells were co-cultured with 20,000 K562 or K562-CD19 cells for 18 hours.
Jurkat T cells lentivirally transduced with the genetic components described herein were co-cultured for 24 hours with K562 cells (human blast crisis Chronic Myeloid Leukemia cell line) lentivirally transduced with an expression vector encoding CD19 (referred to as K562-CD19) (G&P Biosciences LTV-CD19) or isogenic K562 cells lacking the target antigen. Both K562-CD19 and K562 cell lines were engineered to express homogenous high level mCherry expression via transduction with the Jenner lentivirus, allowing discrimination of K562 and Jurkat cells by flow cytometry. Unless otherwise specified, 50,000 Jurkat cells were co-cultured with 10,000 K562 cells in 110 ul of RPMI supplemented with Pen/Strep and 10% fetal calf serum for 24 hours. The supernatant was then harvested for cytokine secretion assays and IL2 concentration in the supernatant was performed according to manufacturer specifications (BD Biosciences 555190). The cells were analyzed by flow cytometry. Expression of the early activation marker CD69 (BioLegend 310910), myc tagged cell surface proteins (Cell Signaling Technologies 2233S), and fluorescent protein markers were assessed.

CRBN [2] = target: T2, CRBN; conditions: in vitro; cited from earlier work
IKZF3aa130-189 = test: BRET assay, dimerization of IKZF3aa130-189 with CRBN or minCRBN variants; type: cell-based, human; conditions: pomalidomide dose-response
Procedure: Specifically, CRBN deletion variants were engineered to retain binding to Pom/IKZF3 but not DDB1/CUL4. Four deletion variants were generated in CRBN that removed the DDB1-binding domain, as shown in the middle image (NTD is the N-terminal domain; LLP1 is Lon-like protease domain 1 (split into LLP1-N and LLP1-C regions); TBD is the Thalidomide binding domain). At middle, BRET assays were performed upon 293T cells harboring bialleleic CRISPR/Cas9 disruption of endogenous CRBN (293T-CRBNΔe5), to assess dimerization between IKZF3aa130-189 and CRBN or minCRBN variants (dose-response data shown are CRBN, minCRBN1, minCRBN2, minCRBN3 and minCRBN4). […] Pomalidomide-dependent dimerization was observed between IKZF3aa130-189-HaloTag and CRBN-Nanoluciferase (NLuc) or minCRBN2-4-NLuc. […] 1 day after transfection, cells were exposed to 1 μM pomalidomide for the number of hours indicated and GFP and mCherry fluorescence was measured by flow cytometry (eGFPmCherry levels were detected as 0.5 or less for the CRBN trace).
(§1) 293T cells were co-transfected with pFC14K and pFC32K plasmids expressing IKZF3-HaloTag and CRBN-Nanoluciferase fusion proteins and incubated overnight. Cells were then trypsinized and seeded into 96 well plates, at 40,000 cells per well. The BRET assay was performed per manufacturer's instructions (Promega™). In brief, cells were incubated for 2 hours with varying concentrations of Pomalidomide or DMSO, 10 μM MG132, and 100 nM HaloTag NanoBRET 618 Ligand. NanoBRET Nano-Glo substrate was added and donor (460 nm) and acceptor (618 nm) emission were measured within 10 minutes (EnVision, Perkin Elmer). Mean corrected milliBRET units (mBU) was calculated.
Tested forms of minimal CRBN included minCRBN1, minCRBN2, minCRBN3 and minCRBN4, each of which were aligned against the wild-type CRBN (FIG. 1; all tested minCRBNs lacked the DDB1-binding domain—minCRBN1 comprised amino acids 339-442 of CRBN (including the TBD); minCRBN2 comprised amino acids 317-442 of CRBN (including TBD and an N-terminal extended sequence relative to minCRBN1); minCRBN3 included all CRBN sequence other than amino acids 194-207 (deletion of the DDB1-binding domain); and minCRBN4 included all sequences other than amino acids 187-260 (deletion of the DDB1-binding domain)).

IKZF3 degron-GFP = test: eGFP/mCherry reporter, IKZF3 degron degradation with co-transfected CRBN or minCRBN1-4 in 293T-CRBNΔe5 cells; type: cell-based, human; conditions: 1 μM pomalidomide, time course in hours, 293T-CRBNΔe5 cells
Procedure: Specifically, CRBN deletion variants were engineered to retain binding to Pom/IKZF3 but not DDB1/CUL4. Four deletion variants were generated in CRBN that removed the DDB1-binding domain, as shown in the middle image (NTD is the N-terminal domain; LLP1 is Lon-like protease domain 1 (split into LLP1-N and LLP1-C regions); TBD is the Thalidomide binding domain). At middle, BRET assays were performed upon 293T cells harboring bialleleic CRISPR/Cas9 disruption of endogenous CRBN (293T-CRBNΔe5), to assess dimerization between IKZF3aa130-189 and CRBN or minCRBN variants (dose-response data shown are CRBN, minCRBN1, minCRBN2, minCRBN3 and minCRBN4). […] 1 day after transfection, cells were exposed to 1 μM pomalidomide for the number of hours indicated and GFP and mCherry fluorescence was measured by flow cytometry (eGFPmCherry levels were detected as 0.5 or less for the CRBN trace).
Transduced cells were incubated with a range of Pomalidomide concentrations or DMSO for 20 hours. Cells were analyzed by flow cytometry for eGFP and mCherry fluorescence. 1000 mCherry+ cells were analyzed per sample, and the geometric mean of the per-cell eGFP/mCherry ratio was calculated in Flowjo. In Pomalidomide dose titration studies, the EC50 was calculated by non-linear regression in Prism. […] Cells were washed with FACS buffer and analyzed by flow cytometry.

IKZF3 A153M = test: BRET, IKZF3 A153 substitutions with CRBN, CRBN V388A or CRBN I371A; type: cell-based, human; conditions: 293T cells, 2 hours
Procedure: as §1

Sequence of IKZF3aa130-189 (Q9UKT9 130-189 limits assumed, one chain of several): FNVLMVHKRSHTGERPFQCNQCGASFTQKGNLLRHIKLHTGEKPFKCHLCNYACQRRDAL
Sequence of IKZF3 A153M (Q9UKT9 130-189 A153M limits assumed): as the sequence (Q9UKT9 130-189 limits assumed, one chain of several) above, with A24M counted along it
T1 sequence (Q16531 whole entry partner, one chain of several, the tested form may be a part): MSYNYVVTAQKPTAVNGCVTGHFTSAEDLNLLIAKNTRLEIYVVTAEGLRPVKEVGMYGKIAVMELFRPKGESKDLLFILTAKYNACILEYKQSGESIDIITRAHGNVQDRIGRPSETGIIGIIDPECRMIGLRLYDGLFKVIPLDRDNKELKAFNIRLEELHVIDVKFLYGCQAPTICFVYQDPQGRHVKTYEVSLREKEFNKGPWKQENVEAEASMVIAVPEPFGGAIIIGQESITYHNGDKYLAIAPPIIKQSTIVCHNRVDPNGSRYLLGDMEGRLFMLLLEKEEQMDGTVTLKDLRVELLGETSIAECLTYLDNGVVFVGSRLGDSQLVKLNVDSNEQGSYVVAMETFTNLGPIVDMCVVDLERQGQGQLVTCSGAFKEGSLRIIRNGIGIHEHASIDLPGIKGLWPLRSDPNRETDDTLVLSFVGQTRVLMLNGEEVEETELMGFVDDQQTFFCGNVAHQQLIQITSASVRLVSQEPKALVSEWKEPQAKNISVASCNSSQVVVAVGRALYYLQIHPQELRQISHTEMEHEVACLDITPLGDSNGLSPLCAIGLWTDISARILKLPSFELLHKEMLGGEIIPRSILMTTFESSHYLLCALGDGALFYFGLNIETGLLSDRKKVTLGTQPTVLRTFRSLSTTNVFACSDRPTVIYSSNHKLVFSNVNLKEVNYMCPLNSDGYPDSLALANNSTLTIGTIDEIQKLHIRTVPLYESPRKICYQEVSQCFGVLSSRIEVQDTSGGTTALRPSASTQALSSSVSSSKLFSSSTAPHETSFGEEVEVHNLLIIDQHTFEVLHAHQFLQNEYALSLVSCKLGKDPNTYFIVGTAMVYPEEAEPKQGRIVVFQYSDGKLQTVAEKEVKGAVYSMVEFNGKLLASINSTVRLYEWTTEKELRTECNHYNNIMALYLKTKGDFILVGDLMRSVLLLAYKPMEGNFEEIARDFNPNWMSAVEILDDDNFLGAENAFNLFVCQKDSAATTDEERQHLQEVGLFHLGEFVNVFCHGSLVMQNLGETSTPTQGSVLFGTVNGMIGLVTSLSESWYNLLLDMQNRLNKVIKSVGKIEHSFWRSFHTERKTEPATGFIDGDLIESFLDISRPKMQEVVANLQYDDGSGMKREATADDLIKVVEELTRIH
T1 sequence (Q13619 whole entry partner, one chain of several, the tested form may be a part): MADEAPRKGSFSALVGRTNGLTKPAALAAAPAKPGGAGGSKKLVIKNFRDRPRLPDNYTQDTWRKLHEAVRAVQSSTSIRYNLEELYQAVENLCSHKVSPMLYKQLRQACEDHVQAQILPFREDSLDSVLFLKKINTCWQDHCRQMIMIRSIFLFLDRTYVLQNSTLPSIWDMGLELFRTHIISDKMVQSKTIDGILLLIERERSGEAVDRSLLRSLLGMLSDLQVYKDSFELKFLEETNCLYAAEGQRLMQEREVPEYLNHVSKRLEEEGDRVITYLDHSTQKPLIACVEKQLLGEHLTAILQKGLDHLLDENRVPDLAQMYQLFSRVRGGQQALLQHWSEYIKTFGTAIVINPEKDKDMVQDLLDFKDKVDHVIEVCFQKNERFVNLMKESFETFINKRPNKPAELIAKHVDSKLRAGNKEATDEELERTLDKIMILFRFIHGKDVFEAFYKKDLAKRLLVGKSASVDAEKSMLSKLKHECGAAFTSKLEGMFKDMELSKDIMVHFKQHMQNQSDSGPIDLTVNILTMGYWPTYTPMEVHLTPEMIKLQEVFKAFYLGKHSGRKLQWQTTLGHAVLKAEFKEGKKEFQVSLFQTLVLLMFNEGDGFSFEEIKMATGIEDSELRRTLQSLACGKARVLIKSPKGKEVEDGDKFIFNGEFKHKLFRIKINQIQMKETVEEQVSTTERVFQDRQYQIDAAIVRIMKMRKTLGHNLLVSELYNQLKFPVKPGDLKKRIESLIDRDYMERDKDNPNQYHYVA
T1 sequence (P62877 whole entry partner, one chain of several, the tested form may be a part): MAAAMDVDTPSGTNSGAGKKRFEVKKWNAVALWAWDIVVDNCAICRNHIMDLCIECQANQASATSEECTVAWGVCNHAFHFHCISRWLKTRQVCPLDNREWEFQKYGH
T1 sequence (Q9UKT9 130-189 partner limits assumed, one chain of several): as the sequence (Q9UKT9 130-189 limits assumed, one chain of several) above
Sequence of IKZF3 degron-GFP (Q9UKT9 130-189 limits assumed, one chain of several): as above

degradation of degron-eGFP protein (CRL4^CRBN; by 1 hour after addition of 1 μM pomalidomide): ~90%
EC50 (CRL4^CRBN; nM pomalidomide, Jurkat T cells): 0.4 nM
Molecule: degron: IKZF3 degron polypeptide, amino acids 130-189, SEQ ID NO: 5, as eGFP fusion

Molecule: IKZF3 A153M: IKZF3 degron polypeptide, amino acids 130-189 A153M, SEQ ID NO: 36
pomalidomide-dependent degradation of substituted IKZF3 degron (CRBN [1]): disrupted binding and degradation by CRBN

Molecule: d913: Hybrid degron, IKZF3 aa 130-145 + ZFP91 aa 400-410 + IKZF3 aa 157-189, SEQ ID NO: 95 (FNVLMVHKRSHTGERPLQCEICGFTCRQKGNLLRHIKLHTGEKPFKCHLCNYACQRRDAL)
drug control over CAR protein expression, activation and IL2 secretion (K562-CD19 cells; Jurkat CAR-T with K562 or K562-CD19, 18 hours): more robust control over CAR protein expression, activation, and cytokine secretion than the endogenous IKZF3 degron
cell surface CAR expression (anti-Myc tag) (K562-CD19 cells; Jurkat T cells, no drug (tonic)): lower tonic CAR cell surface protein abundance versus the control CAR

Molecule: O=C1CCC(N2C(=O)c3ccccc3C2=O)C(=O)N1 (stereo not shown) [thalidomide, Thalidomide]
binding to CRBN (CRBN [2]): binds to CRBN in vitro

Molecule: A153D: IKZF3 degron polypeptide, amino acids 130-189 A153D, SEQ ID NO: 43
pomalidomide-dependent degradation of substituted IKZF3 degron (CRBN [1]): most effective at disrupting pomalidomide-dependent IKZF3 degron degradation

Molecule: Nc1cccc2c1C(=O)N(C1CCC(=O)NC1=O)C2=O (stereo not shown) [pomalidomide, Pomalidomide]
binding to CRBN (CRBN [2]): binds to CRBN in vitro

B1: minCRBN4: All CRBN sequences other than amino acids 187-260 (deletion of the DDB1-binding domain), SEQ ID NO: 4 (protein)
chain: MAGEGDQQDAAHNMGNHLPLLPESEEEDEMEVEDQDSKEAKKPNIINFDTSLPTSHTYLGADMEEFHGRTLHDDDSCQVIPVLPQVMMILIPGQTLPLQLFHPQEVSMVRNLIQKDRTFAVLAYSNVQEREAQFGTTAEIYAYREEQDFGIEIVKVKAIGRQRFKVLELRTQSDGIQQAKVQILPLREWDENLKDDSLPSNPIDFSYRVAACLPIDDVLRIQLLKIGSAIQRLRCELDIMNKCTSLCCKQCQETEITTKNEIFSLSLCGPMAAYVNPHGYVHETLTVYKACNLNLIGRPSTEHSWFPGYAWTVAQCKICASHIGWKFTATKKDMSPQKFWGLTRSALLPTIPDTEDEISPDKVILCL
pomalidomide-dependent dimerization with IKZF3 degron (mBU) (IKZF3aa130-189): pomalidomide-dependent interactions

B2: minCRBN2: Minimal CRBN, amino acids 317-442 of CRBN, SEQ ID NO: 2 (protein)
chain: CTSLCCKQCQETEITTKNEIFSLSLCGPMAAYVNPHGYVHETLTVYKACNLNLIGRPSTEHSWFPGYAWTVAQCKICASHIGWKFTATKKDMSPQKFWGLTRSALLPTIPDTEDEISPDKVILCL
pomalidomide-dependent dimerization with IKZF3 degron (mBU) (IKZF3aa130-189): pomalidomide-dependent interactions

B3: minCRBN1: Minimal CRBN, amino acids 339-442 of CRBN (including the TBD), SEQ ID NO: 1 (protein)
chain: SLSLCGPMAAYVNPHGYVHETLTVYKACNLNLIGRPSTEHSWFPGYAWTVAQCKICASHIGWKFTATKKDMSPQKFWGLTRSALLPTIPDTEDEISPDKVILCL
pomalidomide-dependent dimerization with IKZF3 degron (mBU) (IKZF3aa130-189): dose-dependence was only not observed

B4: CRBN: Native Homo sapiens CRBN polypeptide, SEQ ID NO: 6; positive control (protein, listed as Homo sapiens)
chain: MAGEGDQQDAAHNMGNHLPLLPAESEEEDEMEVEDQDSKEAKKPNIINFDTSLPTSHTYLGADMEEFHGRTLHDDDSCQVIPVLPQVMMILIPGQTLPLQLFHPQEVSMVRNLIQKDRTFAVLAYSNVQEREAQFGTTAEIYAYREEQDFGIEIVKVKAIGRQRFKVLELRTQSDGIQQAKVQILPECVLPSTMSAVQLESLNKCQIFPSKPVSREDQCSYKWWQKYQKRKFHCANLTSWPRWLYSLYDAETLMDRIKKQLREWDENLKDDSLPSNPIDFSYRVAACLPIDDVLRIQLLKIGSAIQRLRCELDIMNKCTSLCCKQCQETEITTKNEIFSLSLCGPMAAYVNPHGYVHETLTVYKACNLNLIGRPSTEHSWFPGYAWTVAQCKICASHIGWKFTATKKDMSPQKFWGLTRSALLPTIPDTEDEISPDKVILCL
pomalidomide-dependent dimerization with IKZF3 degron (mBU) (IKZF3aa130-189): pomalidomide-dependent interactions
eGFP/mCherry level of IKZF3 degron-GFP reporter (IKZF3 degron-GFP): ≤ 0.5
eGFP/mCherry level of IKZF3 degron-GFP reporter (IKZF3 degron-GFP; listed as wild-type CRBN): successfully promoted degradation of the IKZF3 degron

B5: CRBN V388A: CRBN polypeptide with V388A substitution (protein, UniProt Q96SW2 1-442, looked up, variant V388A)
Protein cereblon: MAGEGDQQDAAHNMGNHLPLLPAESEEEDEMEVEDQDSKEAKKPNIINFDTSLPTSHTYLGADMEEFHGRTLHDDDSCQVIPVLPQVMMILIPGQTLPLQLFHPQEVSMVRNLIQKDRTFAVLAYSNVQEREAQFGTTAEIYAYREEQDFGIEIVKVKAIGRQRFKVLELRTQSDGIQQAKVQILPECVLPSTMSAVQLESLNKCQIFPSKPVSREDQCSYKWWQKYQKRKFHCANLTSWPRWLYSLYDAETLMDRIKKQLREWDENLKDDSLPSNPIDFSYRVAACLPIDDVLRIQLLKIGSAIQRLRCELDIMNKCTSLCCKQCQETEITTKNEIFSLSLCGPMAAYVNPHGYVHETLTVYKACNLNLIGRPSTEHSWFPGYAWTAAQCKICASHIGWKFTATKKDMSPQKFWGLTRSALLPTIPDTEDEISPDKVILCL
pomalidomide-dependent binding with IKZF3 A153M (IKZF3 A153M; 10 μM MG132, 1 μM pomalidomide and dose-response): restored binding affinity with IKZF3 A153M; also recorded: greatest restoration of pomalidomide-dependent binding
mBU fold change at 1 μM Pomalidomide/DMSO (IKZF3 A153M; 10 μM MG132, mutant versus wild type CRBN): increased the mBU fold change versus wild type CRBN
